Measured values published in patent US20110293610A1 (published 2011).

T1: TNF-beta (human, UniProt P01374 35-205)
T1 construct: also called TNFβ; Tumour Necrosis Factor-beta
T1 sequence (looked up): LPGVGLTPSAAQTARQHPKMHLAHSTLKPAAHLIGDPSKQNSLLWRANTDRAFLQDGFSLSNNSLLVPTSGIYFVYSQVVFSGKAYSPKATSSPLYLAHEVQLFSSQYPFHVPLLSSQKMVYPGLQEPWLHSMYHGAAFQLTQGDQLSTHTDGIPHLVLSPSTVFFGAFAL

T2: Fas ligand (human, UniProt P48023 134-281, limits assumed)
T2 sequence (looked up): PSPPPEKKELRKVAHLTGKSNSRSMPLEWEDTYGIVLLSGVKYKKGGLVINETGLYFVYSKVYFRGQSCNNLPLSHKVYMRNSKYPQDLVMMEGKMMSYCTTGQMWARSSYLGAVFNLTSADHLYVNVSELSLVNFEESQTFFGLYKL


How the values were obtained:
Bovine serum albumin = biological target: T3, Bovine serum albumin (bovine, UniProt P02769 25-607); assay: phage ELISA
T3 construct: also called BSA

TRAIL = biological target: T4, TRAIL (human, UniProt P50591 114-281); assay: phage ELISA
T4 construct: also called TNF-related apoptosis inducing ligand

TNF-alpha = biological target: T5, TNF-alpha (human, UniProt P01375 77-233); assay: phage ELISA
T5 construct: also called TNFα; TNF-α

[1] = biological target: T6, B Lymphocyte Stimulator, soluble form (human) (human, UniProt Q9Y275 134-285, biotinylated with NHS-biotin where used as biotinylated B Lymphocyte Stimulator); assay: phage ELISA
T6 construct: Coated on plastic, captured on streptavidin plates, amine-coupled to a CM5 chip or free in solution, depending on the assay; also called BLyS; immobilized B Lymphocyte Stimulator

LIGHT = LIGHT (human, UniProt O43557 74-240, limits assumed); assay: phage ELISA
TNF-beta = biological target: T1, TNF-beta; assay: phage ELISA
[2] = biological target: T7, HIS-tagged B Lymphocyte Stimulator (human, UniProt Q9Y275 71-285); assay: BIAcore, purified scFv over low density HIS-BLyS surface
T7 construct: Expressed in E. coli; also called HIS-B Lymphocyte Stimulator; histidine-tagged B Lymphocyte Stimulator; not shown: histidine tag from the pQE9 vector
Procedure: The chip containing the low density HIS-B Lymphocyte Stimulator surface was inserted into the BIAcore. […] The dilution series was then injected sequentially over the blank control (flow cell 1) and low density HIS-B Lymphocyte Stimulator surface (flow cell 2) using the following program: […]

[3] = biological target: T8, mouse B Lymphocyte Stimulator (mouse, UniProt Q9WU72 127-309, limits assumed); assay: phage ELISA
T8 construct: also called murine B Lymphocyte Stimulator; immobilized mouse B Lymphocyte Stimulator

Fas ligand = biological target: T2, Fas ligand; assay: phage ELISA
[4] = biological target: T9, membrane-bound B Lymphocyte Stimulator on U937 plasma membrane preparations (human, UniProt Q9Y275 1-285); assay: phage ELISA
T9 construct: Natural protein in plasma membrane fractions of the human cell line U937 coated on ELISA plates; also called U937 plasma membranes; U937 membranes

[5] = biological target: T6, B Lymphocyte Stimulator, soluble form …; assay: phage competition ELISA
[6] = biological target: T10, B Lymphocyte Stimulator, soluble form (human, UniProt Q9Y275 134-285); assay: BIAcore, IgG1 captured on low-density Protein A, BLyS flowed over; mean ± SD
T10 construct: also called BLyS; Neutrokine-alpha
Procedure: Briefly, antibodies were captured on low-density Protein A surfaces and B Lymphocyte Stimulator was passed over at various flow rates. The binding of B Lymphocyte Stimulator to immobilized antibody was detected by changes in […] that were proportional to the amount of bound B Lymphocyte Stimulator. Binding values were calculated using software provided by the manufacturer.

T3 sequence (P02769 25-607 limits assumed): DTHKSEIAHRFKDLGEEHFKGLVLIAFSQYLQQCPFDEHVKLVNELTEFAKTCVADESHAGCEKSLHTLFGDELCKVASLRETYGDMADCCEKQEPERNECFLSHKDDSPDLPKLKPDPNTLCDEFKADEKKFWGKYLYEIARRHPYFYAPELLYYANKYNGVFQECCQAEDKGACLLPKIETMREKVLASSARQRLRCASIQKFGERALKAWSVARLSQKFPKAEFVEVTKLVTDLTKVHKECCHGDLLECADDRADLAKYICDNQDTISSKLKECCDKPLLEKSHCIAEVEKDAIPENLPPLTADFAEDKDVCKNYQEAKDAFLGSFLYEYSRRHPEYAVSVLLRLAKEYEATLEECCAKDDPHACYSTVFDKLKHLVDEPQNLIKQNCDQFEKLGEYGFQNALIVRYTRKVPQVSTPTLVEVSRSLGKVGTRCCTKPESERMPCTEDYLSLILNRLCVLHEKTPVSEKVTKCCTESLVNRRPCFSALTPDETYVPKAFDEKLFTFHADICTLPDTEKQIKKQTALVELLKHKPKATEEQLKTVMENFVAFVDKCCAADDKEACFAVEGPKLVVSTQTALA
T4 sequence (P50591 114-281 limits assumed): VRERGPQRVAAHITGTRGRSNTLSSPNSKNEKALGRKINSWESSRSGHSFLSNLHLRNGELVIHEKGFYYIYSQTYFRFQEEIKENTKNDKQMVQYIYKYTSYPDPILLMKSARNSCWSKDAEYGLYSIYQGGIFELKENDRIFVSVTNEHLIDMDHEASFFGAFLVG
T5 sequence (P01375 77-233 limits assumed): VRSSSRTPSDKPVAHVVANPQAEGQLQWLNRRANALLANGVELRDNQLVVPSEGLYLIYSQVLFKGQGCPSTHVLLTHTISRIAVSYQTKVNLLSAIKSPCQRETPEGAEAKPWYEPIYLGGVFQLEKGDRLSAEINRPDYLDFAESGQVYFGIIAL
T8 sequence (Q9WU72 127-309 limits assumed): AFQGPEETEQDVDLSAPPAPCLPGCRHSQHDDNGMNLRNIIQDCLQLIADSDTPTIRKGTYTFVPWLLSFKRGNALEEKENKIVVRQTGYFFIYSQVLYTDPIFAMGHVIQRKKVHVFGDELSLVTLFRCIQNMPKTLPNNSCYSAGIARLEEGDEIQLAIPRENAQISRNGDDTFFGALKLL
LIGHT, sequence (O43557 74-240 limits assumed): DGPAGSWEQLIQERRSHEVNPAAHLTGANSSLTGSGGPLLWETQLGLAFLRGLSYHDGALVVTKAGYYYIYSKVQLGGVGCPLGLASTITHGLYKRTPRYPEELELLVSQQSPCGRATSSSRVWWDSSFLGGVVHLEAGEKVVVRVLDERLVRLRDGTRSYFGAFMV

binding result (Bovine serum albumin) | binding result (TRAIL) | binding result (TNF-alpha) | Kd [2] [nM] | binding result [4] | Binder | also measured
– | no binding | no binding | – | binds | I037E07 (scFv) scFv: QVQLVQSGAEVKKPGASVKVSCKASGYTFTNYGITWVRQAPGQGLEWMGWISAYNGNRNYAQKLQGRVTMTTDTSTSTAYMELRSLRSDDTAVYYCVRDGIDILLVPAALMDVWGRGTMVTVSSGGGGSGGGGSGGGGSQSVLTQPASVSGSPGQSITISCTGTSSDVGGYNYVSWYQQHPGKAPKLMIYEGSKRPSGVSNRFSGSKSGNTASLTISGLQAEDEADYYCSSYTTRSTRVFGGGTKLTVLG | binding result [3]: no binding; binding result (Fas ligand): no binding; binding result (TNF-beta): no binding; binding result [5]: binds
no binding | – | no binding | – | binds | I006E07 (scFv) scFv: QVQLQQSGAEEKKPGASVKVSCKASGYTFTSYAMHWVRQAPGQRLEWMGWINAGNGNTKYSQKFQGRVAITRDTSASTAYMELSSLRSEDTAVYYCARADYDILTGYSPLTYGMDVWGRGTLVTVSSGGGGSGGGGSGGGGSDIQMTQSPSTLSASIGDRVTITCRASEGIYHWLAWYQQKPGKAPKLLIYKASSLASGAPSRFSGSGSGTDFTLTISSLQPDDFATYYCQQYSNYPLTFGGGTKLEIKR | binding result [1]: binds
no binding | – | no binding | – | binds | I008D05 (scFv, also called 1008D05) scFv: GVQLVQSGAEVKKPGSSVKISCKASGVTFNDYAFSWVRQAPGQGLEWVGGIIPKFGKAKYAQKFQGRLTISGDKSTSTAYMELRSLTSDDTAVYYCARATYDPLTGYSFDGFDIWGQGTMVTVSSGGGGSGGGGSGGGGSQSVLTQPASVSGSPGQSITISCTGTSSDVGGYNYVSWYQQHPGKAPKLMIYEGSKRPSGVSNRFSGSKSGNPASLTISGLQAEDEADYYCSSYTTRSTRVFGGGTKLTVLG | binding result [1]: binds
no binding | no binding | no binding | – | binds | I016F04 (scFv) scFv: QVQLQQSGSELKKPGASVKVSCKVSGYSLTKMSMHWVRQSPGEGLEWVGGIDPETRQPVYAQKFQGRVTITKDTSASAAYMELSSLGSEDTALYYCARATYDPLTGYSFDGFDIWGQGTLVTVSSGGGGSGGGGSGGGGSQSVLTQPASVSGSPGQSITISCTGTSSDVGGYNYVSWYQQHPGKAPKLMIYEGSKRPSGVSNRFSGSKSGNTASLTISGLQAEDEADYYCSSYTTRSTRVFGGGTKLTVLG | binding result (Fas ligand): no binding; binding result [5]: binds
– | no binding | no binding | – | binds | I008C03 (scFv) scFv: QMQLVRSGGGVVQPGRSLRLSCAASGFTFSSYGMHWVRQAPGKGLEWVSVTYSGGNTNYADSVRGRFTISRDNSKNTLYLQMNSLRAEDTAVYYCAREGSYDILTGYYVGVGRMDVWGKGTLVTVSSGGGGSGGGGSGGGGSSELTQDPAVSVALGQTVRITCQGDSLRSYYTNWFQQKPGQAPLLVVYAKNKRPSGIPDRFSGSSSGNTASLTITGAQAEDEADYYCNSRDSSGNHVVFGGGTKLTVLG | binding result [3]: no binding; binding result (Fas ligand): no binding; binding result (TNF-beta): no binding; binding result [5]: binds

Continued, binder first:

Binder | binding result (Bovine serum albumin) | binding result (TRAIL) | binding result (TNF-alpha) | Kd [2] [nM] | binding result [4] | also measured
I075A02 (scFv) scFv: QVQLVQSGAEVKKPGSSVKVSCRASGGSFNHAISWVRQAPGRGLEWMGGILPMYGTANYAQKFQGRVTITADKLTNTVYMDLSRLRYEDTAVYYCARELGLSIVGATTGALDMWGRGTLVTVSSGGGGSGGGGSGGGGSAQSVVTQPPSASGTPGQRVTVSCSGGRSNIGSNTVSWYQQLPGTAPKLLIYSNDERPSGVPDRFSGSNSGTSASLAISGLQSEDEADYYCAAWDDSLNGVAFGGGTKLTVLG | no binding | no binding | no binding | – | – | binding result [1]: binds; binding result (LIGHT): no binding; binding result (TNF-beta): no binding
I079E02 (scFv) scFv: QVQLVQSGAEVKKPGSSVKVSCKASGGTFSSYAISWVRQAPGQGLEWMGGIIPIFGTANYAQKFQGRVTITADKSTSTAYMELSSLRSDDTAVYYCARDSGSYYYDAFDIWGKGTMVTVSSGGGGSGGGGSGGGGSDIVMTQSPSTLSASVGDRVTITCRASQGISSWLAWYQQKPGKAPKLLIYAASSLQSGVPSRFSGSGSGTDFTLTISSLQPEDFATYYCQQANSFPLTFGGGTKVEIKR | – | – | – | 10 | – | –
I082G02 (scFv) scFv: KVQLVESGGGVVQPGRSLRLSCVTSGFTFSSYGMHWVRQAPGKGLEWVAGISYDGAKEYYGDPVKGRFTISRDNTKKTLNLQMNSLRAEDTAVYYCARDGYRTNDALDIWGQGTLATVSSGGGGSGGGGSGGGGSDIQMTQSPSTLSASIGDRVTITCRASEGIYHWLAWYQQKPGKAPKLLIYKASSLASGAPSRFSGSGSGTDFTLTISSLQPDDFATYYCQQYSNYPLTFGGGTKLEIKR | – | – | – | 6 | – | –
I116A01 IgG1 (antibody, V domains shown) VH: QVQLQQSGAEVKKPGSSVRVSCKASGGTFNNNAINWVRQAPGQGLEWMGGIIPMFGTAKYSQNFQGRVAITADESTGTASMELSSLRSEDTAVYYCARSRDLLLFPHHALSPWGRGTMVTVSS VL: SSELTQDPAVSVALGQTVRVTCQGDSLRSYYASWYQQKPGQAPVLVIYGKNNRPSGIPDRFSGSSSGNTASLTITGAQAEDEADYYCSSRDSSGNHWVFGGGTELTVLG | – | – | – | – | – | Kd [6]: 0.267 nM; koff [6]: 0.000332 s⁻¹; kon [6]: 1.26e+06 M⁻¹ s⁻¹
I006D08 IgG1 (antibody, V domains shown) VH: QVQLQQSGAEVKKPGSSVRVSCKASGGTFNNNAINWVRQAPGQGLEWMGGIIPMFGTAKYSQNFQGRVAITADESTSTASMELSSLRSEDTAVYYCARSRDLLLFPHYGMDVWGRGTMVTVSS VL: SSELTQDPAVSVALGQTVRVTCQGDSLRSYYASWYQQKPGQAPVLVIYGKNNRPSGIPDRFSGSSSGNTASLTITGAQAEDEADYYCNSRDSSGNHWVFGGGTELTVLG | – | – | – | – | – | Kd [6]: 0.498 nM; koff [6]: 0.00058 s⁻¹; kon [6]: 1.43e+06 M⁻¹ s⁻¹
I099D03 (scFv) scFv: QVQLVQSGAEVKKPGASVRVSCKSSGYTFTNYGISWVRQAPGQGLEWMGWISNNNGKTYYAQKVQGRVTMTTDTSTSTDYMELRGLRSDDTAIYYCARDNGGGTIGFDYWGRGTLVTVSSGGGGSGGGGSGGGGSAQAVLTQPSSVSGAPGQRVTMSCTGSSSNIGAGYDVHWYQQLPGTAPKLLIYDNTNRPSGVPDRFSGSRSGTSASLAITGLQAEDEADYFCQSYDITLSAVFGTGTKVTVLG | – | – | – | 4 | – | –
I079F11 (scFv) scFv: QVQLVQSGGGLVKPGGSLRLSCAASGFTFSSYSMNWVRQAPGKGLEWVAVVSSDGGNKYYADSVKGRFTISRDNSKNTVYLQMNSLRADDTAVYYCAKTGSGFDYWGRGTLVTVSSGGGGSGGGGSGGGGSDIQMTQSPSTLSASIGDRVTITCRASEGIYHWLAWYQQKPGKAPKLLIYKASSLASGAPSRFSGSGSGTDFTLTISSLQPDDFATYYCQQYSNYPLTFGGGTKLEIKR | – | – | – | 5 | – | –
I082H08 (scFv) scFv: EVQLVESGGGLVQPGGSLRLSCAASGFTFSDYGMHWVRQRPGKGLEWIAFIGSDGSNKYYGDTVKGRFTISRDNAKNSLYLQMNSLRAEGTAVYYCARDWDMDVWGQGTMVTVSSGGGGSGGGGSGGGGSSHVILTQPRSVSGSPGQSVTISCTGTSSDVGGYHYVSWYQQHPGKAPRLMIYEVTKRPSGVSNRFSGSKSGNTASLTISGVQAEDEADYYCSSYTSASTVIFGGGTKLTVLG | – | – | – | 1 | – | –
